# Experiments:
# [1] = target: monomeric streptavidin variant mSA2; assay: fluorescent binding assay: labeled mSA2 in PBS applied to the protein monolayer, rinsed, fluorescence microscopy
# Method: The binding function of rcSso7d.SA oligomer-PNIPAM thin films was measured using fluorescently-labeled monomeric streptavidin (mSA2) and fluorescently-labeled streptavidin (SA). Details for the expression, purification, and fluorescent labeling of mSA2 are provided below. Samples were prepared by serial dilution of SA or mSA2 in PBS (pH 7.4), human urine (diluted to 50% v/v in PBS, pH 7.4), or blood serum (obtained as the supernatant by centrifuging whole blood at 1500×g for 10 minutes, then diluted to 50% v/v in PBS, pH 7.4). 0.5 μL drops of solutions containing serially diluted fluorescent mSA2 and fluorescent SA samples in PBS (pH 7.4) were gently applied to the surface of each bioconjugate thin film. […] After 1 hour, films were thoroughly rinsed with water for 10 seconds (a time determined to be sufficient to remove unbound molecules from the film, see FIG. 33, dried under filtered airflow, and immediately analyzed for fluorescent signal. Fluorescence microscopy images were acquired at 4× magnification using a Cy5 filter set and exposure time of 5000 ms on an Olympus IX-81 inverted fluorescence microscope with an AxioCam HRC CCD camera. Fluorescent intensity was calculated using ImageJ software⁶⁷ by determining the average fluorescent signal in a rectangular area of the fluorescent image free of defects and occupying no less than half of the full sample application area. […]
# [2] = target: T1, streptavidin (UniProt P22629 37-163, limits assumed); assay: sandwich assay: SA in 50% urine, biotin-HRP/TMB detection
# T1 construct: It was used without a stated label in the sandwich assays; also called SA
# T1 sequence (P22629 37-163 limits assumed): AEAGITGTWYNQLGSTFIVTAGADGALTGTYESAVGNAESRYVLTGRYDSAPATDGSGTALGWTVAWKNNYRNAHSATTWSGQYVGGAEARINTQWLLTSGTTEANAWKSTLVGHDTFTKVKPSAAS
# [3] = target: monomeric streptavidin variant mSA2; assay: apparent Kd (Kd,app); fluorescent binding curve, labeled mSA2 in 50% blood serum, 4 h; quadratic fit
# [4] = target: monomeric streptavidin variant mSA2; assay: fluorescent binding curve, labeled mSA2 in PBS, 4 h exposure; quadratic fit
# Method: (§1) The binding function of rcSso7d.SA oligomer-PNIPAM thin films was measured using fluorescently-labeled monomeric streptavidin (mSA2) and fluorescently-labeled streptavidin (SA). Details for the expression, purification, and fluorescent labeling of mSA2 are provided below. Samples were prepared by serial dilution of SA or mSA2 in PBS (pH 7.4), human urine (diluted to 50% v/v in PBS, pH 7.4), or blood serum (obtained as the supernatant by centrifuging whole blood at 1500×g for 10 minutes, then diluted to 50% v/v in PBS, pH 7.4). 0.5 μL drops of solutions containing serially diluted fluorescent mSA2 and fluorescent SA samples in PBS (pH 7.4) were gently applied to the surface of each bioconjugate thin film. Films were incubated in a sealed chamber saturated with water vapor at room temperature to prevent to prevent drying of the applied fluorescent samples. […] Fluorescence microscopy images were acquired at 4× magnification using a Cy5 filter set and exposure time of 5000 ms on an Olympus IX-81 inverted fluorescence microscope with an AxioCam HRC CCD camera. Fluorescent intensity was calculated using ImageJ software⁶⁷ by determining the average fluorescent signal in a rectangular area of the fluorescent image free of defects and occupying no less than half of the full sample application area.
# (§2) To evaluate how the apparent size-based diffusion properties translated to biosensing capabilities, binding curves were measured using SA and mSA2 solutions in buffer. Binding curves were fit with a quadratic model that is a function of three parameters: the average MFI per binding event a, the total concentration of binding sites [P]T, and the apparent dissociation constant K_{d,app} describing the binding equilibrium between analyte and binding sites within the thin film.
# [5] = target: monomeric streptavidin variant mSA2; assay: apparent Kd (Kd,app); fluorescent binding curve, labeled mSA2 in PBS, 4 h exposure; quadratic fit
# Method: as §1, §2
# [6] = target: monomeric streptavidin variant mSA2; assay: fluorescent binding assay, labeled mSA2 in PBS on the monolayer, 4 h exposure
# [7] = target: T1, streptavidin; assay: apparent Kd (Kd,app); fluorescent binding curve, labeled SA in 50% blood serum, 4 h; quadratic fit
# [8] = target: T1, streptavidin; assay: apparent Kd (Kd,app); fluorescent binding curve, labeled SA in 50% urine, 4 h; quadratic fit
# [9] = target: T1, streptavidin; assay: sandwich assay: SA in 50% blood serum, biotin-HRP/TMB detection
binder,measurement,setting,value
"rcSso7d.SA monolayer (designed binder, EDC/NHS-activated protein coupled to an amine-functionalized silicon wafer, also called monomeric rcSso7d.SA; surface-immobilized rcSso7d.SA) MGSIHHHHHHSSGLVPRGSHMCATVKFTYQGEEKQVDISKIKIVARDGQYIDFKYDEGGGAYGYGWVSEKDAPKELLQMLEKQ",EC50 (read off the curve),[1],~2 µM
same,LOD,[2],32 nM
same,Kd,[3],62 µM
same,[P]T (total concentration of binding sites),[4],0.35 nM
same,Kd,[5],3 µM
same,EC50 (read off the curve),[6],~3 µM
same,Kd,[7],40 µM
same,Kd,[8],47 µM
same,LOD,[9],40 nM

# Reference: US20200057058A1 (MIT, published 2020)
